Experimental data: US20240317826A1, “COMPOSITIONS AND METHODS FOR TREATING AND/OR I[…] AGENT FOR TREATING HIV-1 INFECTIONS” (priority 2021, published 2024)

Legend:
IN-CTD = target: T1, IN-CTD (Human immunodeficiency virus type 1 group M subtype B, UniProt P04585); experiment: Alpha proximity assay, binding of His6-SUMO-INI1183-304 to GST-CTD; set-up: species or system HIV-1
T1 construct: pGEX3x-IN and pGST-IN-CTD(aa 201-288) were used as templates; made in house; host or cells: bacteria (E. coli)
Description: FIG. 16A-FIG. 16H show quantitative Alpha protein-protein interaction assay to determine the interaction of IN, CTD, and the mutants with INI1 and INI1183-304. […] A titration curve was generated with increasing concentrations of His6-SUMO-INI1183-304 with two different fixed concentration of GST-CTD and the interactions were detected as Alpha Score. The KD values were determined by nonlinear regression analysis using specific binding with Hill slope analysis in GraphPad Prism. Data from one representative experiment is depicted. FIG. 16B and FIG. 16C show effect of salt on the interactions of GST-CTD either with His6-SUMO-INI1183-304 or biotinylated(Bio)-TAR RNA (n=3 independent experiments). The interaction was tested using fixed concentrations of GST-CTD (0.75 μM) and increasing concentrations of His6-SUMO-INI1183-304 (or Bio-TAR RNA) in two different NaCl conditions (100 and 500 mM). […] The IC50 values were determined by fitting the data to a four-parameter dose-response curve using GraphPad prism. […]
AlphaScreen proximity assay to detect the protein-protein and protein-RNA interactions. […] The Alpha score readings were measured using Alpha-compatible Envision 2105 multi-plate reader (Perkin-Elmer). All the experiments related to this method were carried out 3 to 5 times and data were analyzed by using Graph Pad Prism 9 version 9.0.0 (GraphPad Software, CA). […]

[1] = test system: HIV-1 particle production; details: by binding to IN within GagPol; cited from earlier work

B1: INI1183-304: INI1 fragment aa 183-304 (Rpt1, linker, part of Rpt2), expressed as His6-SUMO fusion (protein)
chain: PEVLVPIRLDMEIDGQKLRDAFTWNMNEKLMTPEMFSEILCDDLDLNPLTFVPAIASAIRQQIESYPTDSILEDQSDQRVIIKLNIHVGNISLVDQFEWDMSEKENSPEKFALKLCSELGLG
modifications: left off: large carriers
notes: INI1 fragment aa 183-304 (Rpt1, linker, part of Rpt2), expressed as His6-SUMO fusion
With B1 the “KD for binding, IN-CTD/INI1183-304” value (IN-CTD) was “low nM”.

B2: S6: INI1 fragment (aa 183-294) harboring the Rpt1 domain, linker region and a part of Rpt2 (protein, UniProt Q12824 183-294, looked up, fragment)
chain: PEVLVPIRLDMEIDGQKLRDAFTWNMNEKLMTPEMFSEILCDDLDLNPLTFVPAIASAIRQQIESYPTDSILEDQSDQRVIIKLNIHVGNISLVDQFEWDMSEKENSPEKFA
In the case of B2, the “inhibition of HIV-1 particle production” value [1] is listed as “trans-dominantly inhibits HIV-1 particle production”.
